Assay results taken from the RNAGym collection of RNA variant scans (doi:10.1093/molbev/msab373).

B1: Azoarcus group I ribozyme (parent)
chain: GUGCCUUGCGCCGGGAAACCACGCAAGGGAUGGUGUCAAAUUCGGCGAAACCUAAGCGCCCGCCCGGGCGUAUGGCAACGCCGAGCCAAGCUUCGGCGCCUGCGCCGAUGAAGGUGUAGAGACUAGACGGCACCCACCUAAGGCAAACGCUAUGGUGAAGGCAUAGUCCAGGGAGUGGCGAAAGUCACACAAACCGG

Variants of: B1
Assay: reverse-splicing fitness (ratio to wild type); higher = more active; in vitro selection; Mg2+ level not given
Outline: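 An in vitro group I ribozyme library with randomized positions was T7-transcribed and gel-purified. In triplicate, 10 pmol RNA in EPPS pH 7.5 was reacted with 50 pmoles of a 30-nt RNA substrate for 1 h at 37 °C across several added MgCl2 levels (1–48 mM), then stopped with EDTA. Products were reverse transcribed from a substrate-complementary primer, PCR-amplified and sequenced (HiSeq 4000). Fitness is a variant's read proportion after selection over that before, normalised to wild type.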

Variant | reverse-splicing fitness
A111U A120C | 0.587
A111U A120C A145C C150G C169U U176G | 0.00478
A111U A120C A145C C150G C169U U176A | 0.0109
A111U A120C A145C C150G C169U U176C | 0.0144
A111U A120C A145C C150A C169U | 0.013
A111U A120C A145C C150A C169A | 0.00677
A111U A120C A145C C150A C169G | 0.00677
A111G C150G C169A U176C | 0.0111
A111G C150G C169A U176G | 0.00557
A111G C150G C169A U176A | 0.0101
A111G C150U C169G U176A | 0.0243
A111G C150U C169G U176C | 0.0386
A111G C150U C169G U176G | 0.00579
A111U A120C A145C C150U C169U | 0.05
A111U A120C A145C C150U C169A | 0.00788
A111U A120C A145C C150U C169G | 0.00744
A111G A145U C150G C169U U176C | 0.0148
A111G A145U C150G C169U U176G | 0.00488
A111G A145U C150G C169U U176A | 0.00751
A111U A120C A145C C169G U176G | 0.00463
A111U A120C A145C C169G U176A | 0.023
A111U A120C A145C C169G U176C | 0.0106
A111U A120C A145C C150U C169G U176A | 0.0171
A111U A120C A145C C150U C169G U176G | 0.00481

Variant | reverse-splicing fitness
A111U A120C A145C C150U C169G U176C | 0.00958
A111G C150U C169A U176C | 0.0193
A111G C150U C169A U176G | 0.00554
A111G C150U C169A U176A | 0.0169
A111G A145U C150U C169G U176G | 0.0059
A111G A145U C150U C169G U176A | 0.0215
A111G A145U C150U C169G U176C | 0.0325
A111G C150G C169U U176A | 0.00683
A111G C150G C169U U176C | 0.0163
A111G C150G C169U U176G | 0.00532
A111G A145U C169U U176C | 0.0656
A111G A145U C169U U176G | 0.00767
A111G A145U C169U U176A | 0.0488
A111G A145U C150G C169A U176C | 0.00907
A111G A145U C150G C169A U176G | 0.00461
A111G A145U C150G C169A U176A | 0.00932
A111U A120C A145C C150G U176G | 0.00429
A111U A120C A145C C150G U176C | 0.04
A111U A120C A145C C150G U176A | 0.0176
A111U A120C A145C C150G C169A U176A | 0.00803
A111U A120C A145C C150G C169A U176C | 0.00519
A111U A120C A145C C150G C169A U176G | 0.00509
A111G A145U U176G | 0.524
A111G A145U U176C | 0.809

Variant | reverse-splicing fitness
A111G A145U U176A | 0.755
A111U A120C A145C C150A C169G U176A | 0.0194
A111U A120C A145C C150A C169G U176G | 0.00536
A111U A120C A145C C150A C169G U176C | 0.00889
A111G A145U C150G C169G U176C | 0.00501
A111G A145U C150G C169G U176A | 0.00712
A111G A145U C150G C169G U176G | 0.00482
A111U A120C A145C | 0.537
A111G A145U C169G U176A | 0.0268
A111G A145U C169G U176C | 0.0429
A111G A145U C169G U176G | 0.00522
A111U A120C A145C C150A C169A U176A | 0.0101
A111U A120C A145C C150A C169A U176G | 0.00536
A111U A120C A145C C150A C169A U176C | 0.00583
A111U A120C A145C C150G C169G U176C | 0.0059
A111U A120C A145C C150G C169G U176G | 0.00475
A111U A120C A145C C150G C169G U176A | 0.00898
A111G A145U C150G U176C | 0.226
A111G A145U C150G U176G | 0.0305
A111G A145U C150G U176A | 0.17
A111G C150G U176A | 0.0982
A111G C150G U176C | 0.166
A111G C150G U176G | 0.0168
A111G A145U C150U C169U | 0.132

Variant | reverse-splicing fitness
A111G A145U C150U C169A | 0.0341
A111G A145U C150U C169G | 0.0749
A111U A120C A145C C150U | 0.17
A111U A120C A145C C150G | 0.0767
A111U A120C A145C C150A | 0.0343
A111G A145U C150U U176A | 0.677
A111G A145U C150U U176C | 0.697
A111G A145U C150U U176G | 0.317
A111U A120C A145C C150U U176G | 0.019
A111U A120C A145C C150U U176C | 0.0967
A111U A120C A145C C150U U176A | 0.0815
A111G U176A | 0.794
A111G U176C | 0.752
A111G U176G | 0.354
A111G C169G U176C | 0.0577
A111G C169G U176G | 0.00607
A111G C169G U176A | 0.0309
A111G A145U C169A U176G | 0.00483
A111G A145U C169A U176A | 0.0114
A111G A145U C169A U176C | 0.0203
A111G C169U U176C | 0.0614
A111G C169U U176G | 0.00769
A111G C169U U176A | 0.0489
A111U | 0.971

Variant | reverse-splicing fitness
A111G C169A | 0.0602
A111G C169U | 0.196
A111G C169G | 0.117
A111U A120C A145C C169A | 0.00906
A111U A120C A145C C169G | 0.00891
A111U A120C A145C C169A U176A | 0.00934
A111U A120C A145C C169A U176C | 0.00538
A111U A120C A145C C169A U176G | 0.00493
A111U A120C A145C C150A C169U U176C | 0.0123
A111U A120C A145C C150A C169U U176G | 0.00524
A111U A120C A145C C150A C169U U176A | 0.0169
A111G C150G C169G | 0.0138
A111G C150G C169U | 0.0227
A111G C150G C169A | 0.0114
A111G C150U C169A | 0.0299
A111G C150U C169G | 0.0695
A111G C150U C169U | 0.112
A111G C150U U176A | 0.686
A111G C150U U176C | 0.646
A111G C150U U176G | 0.271
A111G C169A U176A | 0.0183
A111G C169A U176G | 0.00542
A111G C169A U176C | 0.0226
A111U A120C A145C C150G C169A | 0.00818

Variant | reverse-splicing fitness
A111U A120C A145C C150G C169G | 0.00716
A111U A120C A145C C150G C169U | 0.0236
A111G C150A C169A | 0.0135
A111G C150A C169G | 0.0174
A111G C150A C169U | 0.0262
A111G A145U C150U | 0.952
A111G C150A U176C | 0.264
A111G C150A U176G | 0.103
A111G C150A U176A | 0.275
A111U A120C A145C C150U C169U U176G | 0.0056
A111U A120C A145C C150U C169U U176C | 0.0178
A111U A120C A145C C150U C169U U176A | 0.0199
A111G C150A C169G U176A | 0.0252
A111G C150A C169G U176C | 0.0218
A111G C150A C169G U176G | 0.00767
A111G C150A C169U U176A | 0.0199
A111G C150A C169U U176C | 0.0264
A111G C150A C169U U176G | 0.00628
A111G A145U C150U C169U U176C | 0.056
A111G A145U C150U C169U U176A | 0.0375
A111G A145U C150U C169U U176G | 0.00691
A111U A120C A145C C150A U176G | 0.00877
A111U A120C A145C C150A U176C | 0.0236
A111U A120C A145C C150A U176A | 0.0267

Variant | reverse-splicing fitness
A111G A145U C150U C169A U176G | 0.00557
A111G A145U C150U C169A U176A | 0.0142
A111G A145U C150U C169A U176C | 0.0144
A111G C150U | 0.905
A111G C150A | 0.462
A111G C150G | 0.363
A111G A145U C150G C169G | 0.0152
A111G A145U C150G C169U | 0.0229
A111U A120C A145C C150U C169A U176A | 0.00887
A111U A120C A145C C150U C169A U176G | 0.00529
A111U A120C A145C C150U C169A U176C | 0.00539
A111G C150G C169G U176A | 0.00723
A111G C150G C169G U176C | 0.00463
A111G C150G C169G U176G | 0.00539
A111G A145U C169A | 0.0537
A111G A145U C169U | 0.194
A111G A145U C169G | 0.13
A111G C150U C169U U176C | 0.0507
A111G C150U C169U U176A | 0.0336
A111G C150U C169U U176G | 0.00703
A111G C150A C169A U176A | 0.0171
A111G C150A C169A U176C | 0.0177
A111G C150A C169A U176G | 0.00678
